# Results from publication PMC9482650, “Quantitative fragmentomics allow affinity mapping of interactomes” (Nature Communications, 2022).
# T1: MPDZ_12, O75970
# T1 sequence (O75970 1857-1958, limits assumed, looked up): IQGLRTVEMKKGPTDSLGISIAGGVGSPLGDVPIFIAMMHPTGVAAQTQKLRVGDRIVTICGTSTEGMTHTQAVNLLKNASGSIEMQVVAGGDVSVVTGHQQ
# T2: DVL3, Q92997
# T2 sequence (Q92997 244-331, limits assumed, looked up): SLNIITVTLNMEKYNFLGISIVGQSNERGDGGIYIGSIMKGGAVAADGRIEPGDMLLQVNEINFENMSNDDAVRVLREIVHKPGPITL
# T3: APBA1_1, Q02410
# T3 sequence (Q02410 651-752, limits assumed, looked up): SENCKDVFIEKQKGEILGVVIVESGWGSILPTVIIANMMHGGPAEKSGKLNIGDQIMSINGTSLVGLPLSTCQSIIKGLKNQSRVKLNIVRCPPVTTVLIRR
# T4: PDZD2_2, O15018
# T4 sequence (O15018 329-429, limits assumed, looked up): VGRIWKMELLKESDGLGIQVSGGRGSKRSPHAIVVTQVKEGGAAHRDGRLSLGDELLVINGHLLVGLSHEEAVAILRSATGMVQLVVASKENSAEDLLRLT
# T5: SNTG2, Q9NY99
# T5 sequence (Q9NY99 68-166, limits assumed, looked up): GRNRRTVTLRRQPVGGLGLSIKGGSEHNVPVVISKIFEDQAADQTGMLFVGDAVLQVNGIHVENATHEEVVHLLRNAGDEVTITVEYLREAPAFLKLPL
# T6: LIN7C, Q9NUP9
# T6 sequence (Q9NUP9 88-185, limits assumed, looked up): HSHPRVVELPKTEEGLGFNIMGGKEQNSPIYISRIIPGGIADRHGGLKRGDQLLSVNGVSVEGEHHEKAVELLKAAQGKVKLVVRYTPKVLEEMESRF
# T7: GRIP1_5, Q9Y3R0
# T7 sequence (Q9Y3R0 568-668, limits assumed, looked up): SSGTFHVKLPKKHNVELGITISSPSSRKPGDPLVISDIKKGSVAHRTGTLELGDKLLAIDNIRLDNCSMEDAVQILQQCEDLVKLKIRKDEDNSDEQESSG
# T8: LNX2_3, Q8N448
# T8 sequence (Q8N448 463-564, limits assumed, looked up): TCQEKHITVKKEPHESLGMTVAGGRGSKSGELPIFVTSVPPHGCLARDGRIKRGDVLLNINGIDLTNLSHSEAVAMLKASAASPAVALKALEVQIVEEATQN
# T9: APBA1_2, Q02410
# T9 sequence (Q02410 742-832, limits assumed, looked up): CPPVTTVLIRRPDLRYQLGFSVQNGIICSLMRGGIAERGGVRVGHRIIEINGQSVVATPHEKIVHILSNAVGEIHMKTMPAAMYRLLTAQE
# T10: SNTG1, Q9NSN8
# T10 sequence (Q9NSN8 52-150, limits assumed, looked up): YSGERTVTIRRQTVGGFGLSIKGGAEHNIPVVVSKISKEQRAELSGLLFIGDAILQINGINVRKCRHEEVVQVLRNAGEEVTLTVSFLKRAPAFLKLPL
# T11: NHERF3_4, Q5T2W1
# T11 sequence (Q5T2W1 373-468, limits assumed, looked up): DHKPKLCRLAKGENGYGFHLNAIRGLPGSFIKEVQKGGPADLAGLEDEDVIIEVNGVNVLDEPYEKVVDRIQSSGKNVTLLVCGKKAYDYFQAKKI
# Columns and labels:
# Assay in all cases: holdup assay
# Set-up in all cases: key: below the threshold = too weak to quantify, mostly under pKd 3.1 to 4
# Conditions in all cases: plain residues with an end cap or a label only (N-terminal biotin on a linker: ado-ado)
# LIMK2, P53671 = target: LIMK2, P53671
# Inadl_8, Q8NI35 = target: Inadl_8, Q8NI35
# MPDZ_12, O75970 = target: T1, MPDZ_12, O75970
# GRIP2_4, Q9C0E4 = target: GRIP2_4, Q9C0E4
# DLG4_1, P78352 = target: DLG4_1, P78352
# DVL3, Q92997 = target: T2, DVL3, Q92997
# PTPN3, P26045 = target: PTPN3, P26045
# APBA1_1, Q02410 = target: T3, APBA1_1, Q02410
# PDZD2_2, O15018 = target: T4, PDZD2_2, O15018
# SCRIB_2, Q14160 = target: SCRIB_2, Q14160
# SNTG2, Q9NY99 = target: T5, SNTG2, Q9NY99
# MAST2, Q6P0Q8 = target: MAST2, Q6P0Q8
# DLG1_1, Q12959 = target: DLG1_1, Q12959
# Inadl_10, Q8NI35 = target: Inadl_10, Q8NI35
# GRIP2_7, Q9C0E4 = target: GRIP2_7, Q9C0E4
# GORASP2, Q9H8Y8 = target: GORASP2, Q9H8Y8
# LIN7C, Q9NUP9 = target: T6, LIN7C, Q9NUP9
# DLG4_3, P78352 = target: DLG4_3, P78352
# GRIP1_5, Q9Y3R0 = target: T7, GRIP1_5, Q9Y3R0
# IL16_3, Q14005 = target: IL16_3, Q14005
# GIPC2, Q8TF65 = target: GIPC2, Q8TF65
# LNX2_3, Q8N448 = target: T8, LNX2_3, Q8N448
# APBA1_2, Q02410 = target: T9, APBA1_2, Q02410
# FRMPD2_1, Q68DX3 = target: FRMPD2_1, Q68DX3
# NHERF4_4, Q86UT5 = target: NHERF4_4, Q86UT5
# SNTG1, Q9NSN8 = target: T10, SNTG1, Q9NSN8
# NHERF3_4, Q5T2W1 = target: T11, NHERF3_4, Q5T2W1
# Chain of FRMPD2_1, Q68DX3 (Q68DX3 770-861): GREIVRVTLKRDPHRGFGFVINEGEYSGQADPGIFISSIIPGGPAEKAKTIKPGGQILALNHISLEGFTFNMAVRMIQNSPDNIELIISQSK
# Chain of SCRIB_2, Q14160 (Q14160 857-960): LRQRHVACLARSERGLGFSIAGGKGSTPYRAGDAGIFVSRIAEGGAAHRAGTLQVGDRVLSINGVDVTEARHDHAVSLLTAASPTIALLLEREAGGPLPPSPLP
# Chain of IL16_3, Q14005 (Q14005 1107-1207): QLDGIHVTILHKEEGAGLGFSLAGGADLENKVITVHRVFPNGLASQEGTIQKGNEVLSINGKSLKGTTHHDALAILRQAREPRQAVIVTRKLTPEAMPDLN
# Chain of DLG4_3, P78352 (P78352 306-403): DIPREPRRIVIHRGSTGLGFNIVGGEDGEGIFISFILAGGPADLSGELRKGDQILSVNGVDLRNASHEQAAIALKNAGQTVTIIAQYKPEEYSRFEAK
# Chain of GRIP2_4, Q9C0E4 (Q9C0E4 446-548): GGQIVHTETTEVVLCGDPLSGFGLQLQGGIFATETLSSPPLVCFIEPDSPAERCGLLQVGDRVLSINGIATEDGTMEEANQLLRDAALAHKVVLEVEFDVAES
# Chain of DLG4_1, P78352 (P78352 62-152): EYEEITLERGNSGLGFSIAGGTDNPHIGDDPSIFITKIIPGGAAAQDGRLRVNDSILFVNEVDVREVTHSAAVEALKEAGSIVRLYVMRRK
# Chain of PTPN3, P26045 (P26045 505-587): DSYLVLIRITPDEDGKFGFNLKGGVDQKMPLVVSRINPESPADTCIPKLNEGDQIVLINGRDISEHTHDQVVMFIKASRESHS
# Chain of GRIP2_7, Q9C0E4 (Q9C0E4 934-1023): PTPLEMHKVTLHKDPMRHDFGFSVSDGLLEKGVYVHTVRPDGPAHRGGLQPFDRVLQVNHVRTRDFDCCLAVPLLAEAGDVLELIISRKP
# Chain of NHERF4_4, Q86UT5 (Q86UT5 464-550): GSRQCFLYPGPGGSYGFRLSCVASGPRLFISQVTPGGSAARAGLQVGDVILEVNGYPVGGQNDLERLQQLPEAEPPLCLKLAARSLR
# Chain of Inadl_10, Q8NI35 (Q8NI35 1673-1763): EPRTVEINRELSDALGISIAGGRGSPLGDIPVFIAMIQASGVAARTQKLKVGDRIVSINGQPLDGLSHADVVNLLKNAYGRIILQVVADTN
# Chain of LIMK2, P53671 (P53671 143-248): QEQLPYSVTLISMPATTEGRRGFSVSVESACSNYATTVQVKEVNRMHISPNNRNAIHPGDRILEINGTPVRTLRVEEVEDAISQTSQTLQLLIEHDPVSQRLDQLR
# Chain of Inadl_8, Q8NI35 (Q8NI35 1425-1530): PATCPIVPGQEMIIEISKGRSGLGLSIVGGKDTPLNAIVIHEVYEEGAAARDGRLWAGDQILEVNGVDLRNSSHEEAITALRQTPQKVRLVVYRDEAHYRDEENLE
# Chain of GIPC2, Q8TF65 (Q8TF65 112-203): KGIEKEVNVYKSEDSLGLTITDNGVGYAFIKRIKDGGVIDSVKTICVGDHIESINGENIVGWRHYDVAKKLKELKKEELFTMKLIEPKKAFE
# Chain of MAST2, Q6P0Q8 (Q6P0Q8 1099-1202): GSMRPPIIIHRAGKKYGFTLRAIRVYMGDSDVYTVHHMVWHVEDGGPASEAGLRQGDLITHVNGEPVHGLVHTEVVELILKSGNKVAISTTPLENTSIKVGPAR
"pKd (LIMK2, P53671)","pKd (Inadl_8, Q8NI35)","pKd (MPDZ_12, O75970)","pKd (GRIP2_4, Q9C0E4)","pKd (DLG4_1, P78352)","pKd (DVL3, Q92997)","pKd (PTPN3, P26045)","pKd (APBA1_1, Q02410)","pKd (PDZD2_2, O15018)","pKd (SCRIB_2, Q14160)","pKd (SNTG2, Q9NY99)","pKd (MAST2, Q6P0Q8)","pKd (DLG1_1, Q12959)","pKd (Inadl_10, Q8NI35)","pKd (GRIP2_7, Q9C0E4)","pKd (GORASP2, Q9H8Y8)","pKd (LIN7C, Q9NUP9)","pKd (DLG4_3, P78352)","pKd (GRIP1_5, Q9Y3R0)","pKd (IL16_3, Q14005)",Binder,further results
below the threshold,below the threshold,below the threshold,below the threshold,below the threshold,below the threshold,below the threshold,below the threshold,below the threshold,below the threshold,below the threshold,below the threshold,below the threshold,below the threshold,below the threshold,below the threshold,below the threshold,below the threshold,below the threshold,below the threshold,"LAHVKHKEQI [AQP3, Q92482]","pKd (GIPC2, Q8TF65): below the threshold; pKd (LNX2_3, Q8N448): below the threshold; pKd (APBA1_2, Q02410): below the threshold; pKd (FRMPD2_1, Q68DX3): below the threshold; pKd (NHERF4_4, Q86UT5): below the threshold; pKd (SNTG1, Q9NSN8): below the threshold; pKd (NHERF3_4, Q5T2W1): below the threshold"
below the threshold,4.22,below the threshold,below the threshold,3.67,3.7,below the threshold,below the threshold,4.86,below the threshold,below the threshold,3.87,below the threshold,below the threshold,below the threshold,4.13,below the threshold,below the threshold,below the threshold,below the threshold,"QSYPSKHDYV [CLDN18, P56856]","pKd (GIPC2, Q8TF65): below the threshold; pKd (LNX2_3, Q8N448): below the threshold; pKd (APBA1_2, Q02410): 4.45; pKd (FRMPD2_1, Q68DX3): below the threshold; pKd (NHERF4_4, Q86UT5): 4.03; pKd (SNTG1, Q9NSN8): below the threshold; pKd (NHERF3_4, Q5T2W1): 3.48"
below the threshold,3.72,below the threshold,below the threshold,4.32,below the threshold,4.2,below the threshold,4.4,4.1,below the threshold,5.73,4.17,below the threshold,3.52,4.12,3.69,4.4,below the threshold,below the threshold,"RFQQRMQTHV [KIRREL1, Q96J84]","pKd (GIPC2, Q8TF65): below the threshold; pKd (LNX2_3, Q8N448): below the threshold; pKd (APBA1_2, Q02410): 3.92; pKd (FRMPD2_1, Q68DX3): below the threshold; pKd (NHERF4_4, Q86UT5): below the threshold; pKd (SNTG1, Q9NSN8): below the threshold; pKd (NHERF3_4, Q5T2W1): below the threshold"
below the threshold,4.34,4.37,below the threshold,4.24,3.88,4.39,below the threshold,5.54,3.62,below the threshold,4.73,4.21,4.25,below the threshold,4.03,below the threshold,below the threshold,below the threshold,below the threshold,"APIAGFSSFV [SDK2, Q58EX2]","pKd (GIPC2, Q8TF65): below the threshold; pKd (LNX2_3, Q8N448): below the threshold; pKd (APBA1_2, Q02410): 4.15; pKd (FRMPD2_1, Q68DX3): below the threshold; pKd (NHERF4_4, Q86UT5): below the threshold; pKd (SNTG1, Q9NSN8): 3.83; pKd (NHERF3_4, Q5T2W1): below the threshold"
below the threshold,below the threshold,below the threshold,below the threshold,4.71,3.48,4.79,below the threshold,5.32,4.32,3.73,5.3,4.49,below the threshold,below the threshold,3.48,below the threshold,below the threshold,below the threshold,below the threshold,"REEPDHSTEV [CCRL2, O00421]","pKd (GIPC2, Q8TF65): 4.01; pKd (LNX2_3, Q8N448): below the threshold; pKd (APBA1_2, Q02410): 3.9; pKd (FRMPD2_1, Q68DX3): below the threshold; pKd (NHERF4_4, Q86UT5): below the threshold; pKd (SNTG1, Q9NSN8): 4.36; pKd (NHERF3_4, Q5T2W1): below the threshold"
